Test results reported in the nanobody polyreactivity screen of Harvey et al. (2022).

Assay: yeast display, Sf9 membrane polyspecificity reagent, FACS + sequencing; frameworks hold sequencing errors
How it was run: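 Sorting gates, low and high (top ~1%), were placed on anti-HA fluorescence to track expression and on streptavidin fluorescence to track reagent binding. A clone's polyreactivity label is taken from the gate it came out of. The reagent was 10% biotinylated, detergent-solubilized Sf9 membrane, applied for 1 hour at 4 °C to galactose-induced yeast display cells.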

Row | Sequence | polyreactivity (PSR sort gate)
1 | QVQLVESGGGLVQAGGSLRLSCAASGFIFHGYALGWYRQAPGKERELVAAITRRGGRTDYADSVKGRFTISRDNAKNTVYLQMNSLKPEDTAVYYCAKRYTATEWHGERDYWGQGTQVTVSS | high polyreactivity
2 | QVHLVESGGGLVQAGGSLRLSCAASGSNFKGNAMGWYRQAPGKERELVAAINRSGTSTYYADSVKGRFTISRDNAKKTVYLQMNSLKPEDTAVYYCAKKYFGHRFDYWGQGTQVTVSS | high polyreactivity
3 | QVQHVESGRGLVQAGGSLRLSCAASGFIFRLYAMGWYRQAPGKERELVAAISRGGSTTYADSVKGRFTISRDNAKNTVYLQMYSLKPEDTAVYYCATEGDLVAYLYDYWGQGTQVTVSS | low polyreactivity
4 | QVQLVESGGGLVQAGGSLRLSCAASGRIFDCYAMGWYIQAPGKERELVAAIRASGGRTYYADSVKGRFTISRDNAKNTVYLQMNSLKPEDTAVYYCAADSVKYGGDYWGQGTQVTVSS | high polyreactivity
5 | QVQLVESGGGLVQAGGSLRLSCAASGFTFGRNAMGWYRQAPGKERELVAAISRGGSTYYADSVKGRFTISRDNAKNTVYLQMISLKPEDTAVYYCAAETFLKPQYFKKFGYWGQGTQVTVSS | high polyreactivity
6 | QVQLVESGGGLVQAGGSLRLSCAASGFTFDRYAMGWYRQAPGKERELVAAITSRGGRTYYADSVKGRFTISRDNAKNTVYLQMNSLKPEDTAVYYCNAVYSQSGYFYRFDYWGQVTQVTVSS | high polyreactivity
7 | QVQLVESGGGLVQAGGILRLSCAASGSIFRQNPMGWYRKAPGKERELVAAISSGGSTYYADSVKGRFTISRDNAKNNVYLQRNSLKPEDTAVYYCAAYHSFVWGDDYWGQGTQVTVSS | low polyreactivity
8 | QVQLVESAGGLVQAGGSLRLSCAASGSTLHYYAMGRYRQAPGKERELVAGISGSGGSTYYADSVKGRFTISRDNAKNTVYLQMNSLKPEDTAVYYCAADAYVSSQPMDYWGQGTQVTVSS | high polyreactivity
9 | QVQLLESGGGLVQAGGSLRLTCAASGSIFFYYAMAWYRQAPGKEMEFVAGITYSGGITYYADSVKGRFTISRDNEKNTVYLQMNSLKPEDTAVYYCDYGGGVYQYGYWGQGTLVTVSS | low polyreactivity
10 | QVQLVESGGGLVQAGGSLRLSCAASGRIFYRNAMGWYRQAPGQERELVAAISKSGGSTYYADSVKGRFTISRDNAKNTVYLQMNSLKPEDTAVYYSAAGTRRTDGYSWGQGTQVTVAS | high polyreactivity
11 | QDQLVESGGGLVQAGGSLRLSCASSGFTFYVYAMGWYRQAPGKERELVAAISRSGSRTYYADSVKGRVTISRDNAQKTVYLQMNSLKPEDTAVYYCARVRPRGLYFVLHYDYWGQGTQVTVSS | high polyreactivity
12 | QVQHEESGGGLFQAGGSLRLICAASGSIFDYYAMGWYRQAPGKERELVSTYYADSVKVRFTISRDNAKNTVYLQLNSLKPEDTAVYFCAKDRGTTGIPDGPAASLYGYVYWGQGTQVTVSS | low polyreactivity
13 | QVQLVESGGGLVQAGGSLRLSCAASGRTFYSYAMGWYRQAPGKEREFVAAISVRGVITYYADSVKGRFTISRDNAKNTVYLQMNSLKPEDTAVYDCAADWSGYYTYDYWGQGTQVTVSS | low polyreactivity
14 | QVQHVESGGGLVQAGGRLRLSCAASGSIFYSNAIGWYRQAPGKEWELVATITWSGGRTYYADSVKGRFTISRDNAKNTVYLQMNSLKPEDTAVYYCAAVSIYWGQGTQVTVSS | low polyreactivity
15 | QVQLVESGGGLVQAGGSLRLSCAASGSTLVTHAMGWYRQAPGKERELVAGISRSGGSTYYADSVKGRFTISRDNAKNTVYLQMNSLKPEDTAVYYCAARNYRYLYRMEYWGQGTQVTVSS | high polyreactivity
16 | QVHLVESGGGLVQAGGSLRLSCAASASIFRYYAMGRYRQAPGKERELVATISSGGRTYYADSVKGRFTISRDNAKNTVYLQMNSLKPEDPAVYYCAAVRLTWTAKYNYWGQGTQVTVSS | high polyreactivity
17 | QVQLEESGGGLVQAGGSLRLSCAASGITIYYYAMGWYRQAPGKERELVAAISRSAGSTSYADSVKGRFTISRDNAKNTVYLQMNSLKTEDNAVYYCAAQGWHLDSQWQLYNYYYWGQGTQVTVSS | high polyreactivity
18 | QVQLVESGGGLVQAGGSLRLSCAASGLTFSVYAMGWYRQAPGKERELVAAISYSGDSTYADSVKGRFTISRDNAKNTVYLQMNSLKPEDTAVYYCNARWVRQGYRRWYDYWGQGTQVTVSS | low polyreactivity
19 | QVQHVESGGGLVQAGGSLRLSCAASGRIFGYYTMGWYRQAPGKERELVATIDWSGDSTYYADSVKGRFTISRDNAKNTVYLQMNSLKPEDTAVYYCAKRYYLYHYDSWGQGTQVTVSS | low polyreactivity
20 | QVQLVESGGGLVQAAGSLRLSYAASGSTFVYNGMGSYRQAPAKERELVATISSTGSTNYADSVKGRFTISRDNAKNTVYLQMNSLKPEDTAVYYCATEYITYRAYDYWGQGTQVTVSS | low polyreactivity
21 | QVQLVESGGGLVQAGGSLRLSCAASGLIFGYYAMGWYRQAPGKESELVDAFSFSGGSTYYADSVKGRFTISRDNAKNTVYLQMNSLKPEDTAVYYCAADLDGSSEYEYWGQCTQVTVSS | low polyreactivity
22 | QVQLVESGGGLVQAGGSLRLSCAASGSIFNLYAMGWYRQAPGKERELVAGIRWSGGRTYYADSVKGRFTISRDNAKNTVYLQMNSLKPEDTAVYYCNAVGYLSWWNDYDYWGQGTQVTVSS | high polyreactivity

Row | Sequence | polyreactivity (PSR sort gate)
23 | QVQLVESGGRLVQAGGSLRLSCAASVSTFRKYAMGWYRQAPGKEREFVAAITWSTGTTYYADSVKGRFTISRDTAKNTVYLQMNSLKPEDTAVYYCAADSQPPHELYESIEHESWGQGTQVTVSS | low polyreactivity
24 | QVQLVESGGGLVQAGGSLRLSCAASGSTFFPYAMGWYRQAPGKERELVAGISSDGGTSYADSVKGRFTISRDNAKNTVYLQMNSLKPEDTAVYYCAALQADRGGWYDYWGQGTQVTVSS | low polyreactivity
25 | QVQIVESGGGLVQAGGSLRLSCAASGYIVRNAMGWYRQAPGKERELVAAISRRGGRTYYADSVKGRFTISRDNAKNTVYLQMHSLKPEDTAVYYCNKLPGTPRSLATGDYWGQGTQVTVSS | high polyreactivity
26 | QVQLVESGGGLVQAGGSLRLSCAASGSTFKSYAMGWYRQAPGKERELVAAITHRGSTYYADSVKGRFTISRDNAKNTVYLQMNSLKPEDTAVYYCNVRRIGNGRRVDYWGQGTQVTVSS | high polyreactivity
27 | QVQLVESGGGLVQAGGSLRLICAASGYTFYYAMGWYRQAPGKERELVAAISAGGGRTYYADSVKGRFTISRDNAKITVYLQMNSLKPEDTAVYYCNRVYRLTAYGYDYWGQGTQVTVSS | high polyreactivity
28 | QVQLVESGGGLLQAGGSLRLSCSATGSLFEGNGMGWYRQAPGKERELVASITRSGGSTYYADSVKGRFTISRDNAKNTVYLQINSLIPEDTAVYYCAAYPVRYYNQYDYWGLGTQVTVSS | low polyreactivity
29 | QVQLVESGGGLVQAGGSLRLSCAASGLNFGRNAIGWYRQAPGKERELVAAISLSGGRTSYADSVKGRFTISRDNEQNTVYLQMNSVKPEDTAFYFCASRSDVYTHDYWGQGTQVTVSS | high polyreactivity
30 | QVRLVESGGGLVQAGGSLRLSCAASGRIFQYYAMGWYRQAPGKERELVASITSGGGSTYYADSVKGRFTISRDNAKNTVYLQMNSLKPEDTAVYYCNARWYGLSTRYDYWGQGTQVTVSS | low polyreactivity
31 | QVQLVESGGGLVQAGGSLRLSCAASGITFGRHTMGWYRQAPGKERELVAAIDSGGNTYADSVKGRFTISRDNAKNTVYLQMNSLKPEDTAVYYCAVDGGEFSSYGYWGQGTQVTVSS | low polyreactivity
32 | QVQLQESGGGLVQAGGTLRLSCAASGSFSADEDMGWYRQAQGKEREFVAGISVGGNTNYADSVKGPFTISRENAKNTVYLQINSLKPEDTAVYYCAVLQDVYDALDFWAQGTQVTVSS | high polyreactivity
33 | QVQRVESGGGLVQAGGSLRLSCAASGRIFPTNAMGWYRQAPGKERELVAAIPVSGGSTYYADSVKGRFTISRDNAKNTVYLQMNSLKPEDTAVYYCAADSSTYRFDYWGQGTQVTVSS | low polyreactivity
34 | QVQLVESGGGLVQAGGSLRLSCAASGSTFLYNAMGWYRQAPWKERELVAAISWSGGSTYYADSVKGRFTISRDNAKNTVYLQMNSLKPEDTAVYYCAAEQRRFTGYDYWGQGTQVTVSS | high polyreactivity
35 | QVQLVESGGGLVQAGGSLRLSCAASGPIFHPYAMGWYRHAPGKERELVAAITNSGGITYADSVKGRFTISRDNAKNTVYLQMNSLKPEDTAVYYCNTATNRFHYKYRKPYDYWGQGTQVTVSS | low polyreactivity
36 | QVQLVESGVGLVQAGGSHRLSCAASGPTFRYNTMGWYRQAPGKERELVASISSGDRTDYADSVKGRFTISRDNAKYTVYLQMNSLKPEDTAVYYCNNKWYSIYYYWGQGTQVTVSS | high polyreactivity
37 | QVQLVESGGGLDQAGGSLRLTCAASGSTFEVYAMGWYRQAPGKERELVAVNNVSDGSTYYADSVKGRFTISRDNAKNTVYLQMNSLKPEDTAVYYCAAYLYNRPYQLTGYYDGYGYWGQGTQVTVSS | low polyreactivity
38 | QVQLVESGGGLVQAGGSLRLSCAASGFIFSRNAMGWYRQAPGKVRELGAAISRVGSTYYADSVKGRFTISRDNAKNTVYLQMYSLKREDTAVYYCARAWGNGGKSIFDYWGQGTQVTVSS | high polyreactivity
39 | QVQLVESGGGLVQAGGSLRLSCAASGSIFGTNGMGWYRQAPGKERELVAAITRRGGSTYADSVKGRFTISRDNAKNTVYLQMNSLKPEDTAVYYCAAQGYLRLRTHFNYWGQGTQVTVSS | low polyreactivity
40 | QVQLVESGGGLVQAGGSLRLSCVASGRIFYNYAMGWYRQAPGNERELVAAISSSGGRTYYADSVKGRFTISRDNAKNTVYLQMNSLKPEDTAVYYCAADFHDASRPYGSWGQGTQVTVSS | low polyreactivity
41 | QVQLVESGGGLVRAGGSLRLSCAASGSTFPFYAMGWYRQAPGKERELVAAITSGGSTYADSVKGRFTISRDNAKNTVYFQMNSLKAEVTAVYYCAASWPRWWRFGYWGQGTQVTVSS | low polyreactivity
42 | QLQLVESGGGLVQAGGSLRLSCAASGSIFNQYAMGWYRQAPGKERELVAAISSGSTYYADSVKGRFIISRDNAKNTVYLQMFSLKPEDTAVYYCAAGRNRRSSGIYVSKYWGQGTQETVSS | high polyreactivity
43 | QVQLVESGGGLVQAGGSLRLSCAASGSTLVTNAMGWYRQAPGKERELVAAITFSGGTTYYADSVTGRFTISRDNAKNTVYVQMNSLKPEDTAVYYCAAEIWLEYVGYDYWGQGTQVTVSS | high polyreactivity
